Data reported in paper PMC3942355, “Unraveling Regulation of the Small Heat Shock Proteins by the Heat Shock Factor HvHsfB2c in Barley: Its Implications in Drought Stress Response and Seed Development”.

Target: HvHsfB2c (Hordeum vulgare (barley) cv. Golden …, UniProt F4ZC69 1-362)
Test: EMSA; 100 ng poly(dI-dC); EMSA as described previously (ref 24), with 100 ng poly(dI-dC); buffer, salt, pH and temperature not given
Conditions: protein: ivt; chain copies: 3; 5' overhang 4 nt (TCGA) on both strands, 40 bp duplex

Chain of HvHsfB2c (F4ZC69 entry or part of it): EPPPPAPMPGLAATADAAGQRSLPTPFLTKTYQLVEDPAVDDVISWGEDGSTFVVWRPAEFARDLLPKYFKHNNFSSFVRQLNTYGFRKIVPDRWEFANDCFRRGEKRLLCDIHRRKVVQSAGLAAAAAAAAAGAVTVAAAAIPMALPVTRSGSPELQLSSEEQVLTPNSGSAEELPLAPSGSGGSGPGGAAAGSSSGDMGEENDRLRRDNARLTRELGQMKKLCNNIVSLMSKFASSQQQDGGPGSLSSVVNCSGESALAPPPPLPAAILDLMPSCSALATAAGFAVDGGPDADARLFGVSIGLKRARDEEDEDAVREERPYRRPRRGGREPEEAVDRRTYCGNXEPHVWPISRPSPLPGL

B1: HSE-box fragment of HvsHsp17.5-CI promoter (HSE-1/HSE-2) (dsDNA)
DNA 1: TCGAACAACCCAAAATCCAAAAAATTCCACAACCCCAAAAAGGC
DNA 2: TCGAGCCTTTTTGGGGTTGTGGAATTTTTTGGATTTTGGGTTGT
Question: Does B1 bind?
Answer: binds
